Assay results published in PMC3943411, “Modular assembly of designer PUF proteins for specific post-transcriptional regulation of endogenous RNA”.
Where a chain is given by its changes, count along the chain named.

Legend:
Conditions in all cases: protein: recombinant; tags: His-tag (pET28a); label: 5' 6-carboxyfluorescein
PUF (S2) [1] = molecular target: T1, PUF (S2) (human, UniProt Q14671 828-1176, S863N;N1122C); test: fluorescence polarization/anisotropy; cognate; 1 nM RNA; 20 mM Tris-HCl pH 7.5, 0.5 mM EDTA, 50 mM KCl, 0.1 mg/ml BSA; temperature not stated; protein corrected for active fraction (about 30%); KD mean ± SD, n = 3
PUF (S2) [2] = molecular target: T1, PUF (S2); test: fluorescence polarization/anisotropy; noncognate; 1 nM RNA; 20 mM Tris-HCl pH 7.5, 0.5 mM EDTA, 50 mM KCl, 0.1 mg/ml BSA; temperature not stated; protein corrected for active fraction (about 30%); KD mean ± SD, n = 3
PUF (S6) [3] = molecular target: T2, PUF (S6) (human, UniProt Q14671 828-1176, S863N;C935N;N971C;H972Y;C1007N;N1043C;N1122C); test: as above
T2 sequence: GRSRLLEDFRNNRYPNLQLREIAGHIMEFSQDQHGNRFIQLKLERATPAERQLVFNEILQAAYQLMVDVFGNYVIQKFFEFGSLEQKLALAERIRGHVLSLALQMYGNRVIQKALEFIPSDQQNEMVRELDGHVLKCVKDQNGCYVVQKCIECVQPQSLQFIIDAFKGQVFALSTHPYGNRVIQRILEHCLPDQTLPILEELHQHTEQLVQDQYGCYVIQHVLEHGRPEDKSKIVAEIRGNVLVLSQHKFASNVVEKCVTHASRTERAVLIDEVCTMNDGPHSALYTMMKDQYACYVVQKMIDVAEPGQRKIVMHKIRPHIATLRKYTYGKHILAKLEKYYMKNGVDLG

PUF (S4) [4] = molecular target: T3, PUF (S4) (human, UniProt Q14671 828-1176, C935N;N971C;H972Y;C1007N;N1043C); test: as above
T3 sequence: T2 sequence with N36S, C295N

PUF (S4) [5] = molecular target: T3, PUF (S4); test: fluorescence polarization/anisotropy; cognate; 1 nM RNA; 20 mM Tris-HCl pH 7.5, 0.5 mM EDTA, 50 mM KCl, 0.1 mg/ml BSA; temperature not stated; protein corrected for active fraction (about 30%); KD mean ± SD, n = 3
PUF (S6) [6] = molecular target: T2, PUF (S6); test: as above
PUF (S8) = molecular target: T4, PUF (S8) (human, UniProt Q14671 828-1176, S863N;N899S;Q903E;C935N;N971C;H972Y;C1007N;N1043C;S1079N;E1083Q;N1122C); test: as above
T4 sequence: T2 sequence with N72S, Q76E, S252N, E256Q

## CCAGAAUAGUAUAUUAUUCG (ssRNA) [S2 RNA (AGUAUAUU)]
PUF (S2) [1]
  Kd: 0.76 ± 0.11 nM

## CCAGAAUUGUAUAUAUUCG (ssRNA) [WT RNA (UGUAUAUA)]
PUF (S2) [2]
  Kd: 6.29 ± 2.8 nM
PUF (S6) [3]
  Kd: 89.6 ± 16.5 nM
PUF (S4) [4]
  Kd: 5.77 ± 1.33 nM

## CCAGAAUUGAUAUUAUUCG (ssRNA) [S4 RNA (UGAUAUUA)]
PUF (S4) [5]
  Kd: 0.59 ± 0.1 nM

## CCAGAAUAGAUAUUUUUCG (ssRNA) [S6 RNA (AGAUAUUU)]
PUF (S6) [6]
  Kd: 6.05 ± 0.25 nM

## CCAGAAUAUAUAUGUUUCG (ssRNA) [S8 RNA (AUAUAUGU)]
PUF (S8)
  Kd: 2.79 ± 0.69 nM
